Measured values reported in the nanobody polyreactivity screen of Harvey et al. (2022).

Test: yeast display, Sf9 membrane polyspecificity reagent, FACS + sequencing; frameworks hold sequencing errors
Outline: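 In a synthetic yeast display library (Saccharomyces cerevisiae BJ5465), nanobody expression was induced with galactose for 36–48 hours. FACS gates were set low and high (top ~1%) using anti-HA fluorescence for expression and streptavidin fluorescence for binding of the Sf9 membrane reagent. Each polyreactivity label is drawn from the gate of origin.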

| Sequence | polyreactivity (PSR sort gate) |
| --- | --- |
| QVQLVESGGGLVQAGGSLRLSCAASGRTFPGTAMGWYRQAPGKVRELVAAISSSGGSTHYADSVKGRFTISRDTAKNTVYYQMNSLKPEDTAVYYCNTVYAVWYKLDYWGQGTQVTVSS | high polyreactivity |
| QVQLVESGGGLVQAGGSLRLSCAASGRTFPGYAMGCYRQAPGKERELVATITFSDGSTYYADSVKGRFTISRDNAKITVYLQMNSLKPEDTAVYYCNARRSYFLRYGVNYWGQGTQVTVST | low polyreactivity |
| QVQLVESGGGLVQAGGSLRLSCAASGRTFPGYAMGWYRQAPGKERELVAAITSSGDDTYYADSVKGRFTISRDNAKNTVYLQMYSLKPEDTAVYYCRLFRRSADSSFDYEYWGQGTQVTVSS | low polyreactivity |
| QVQLVESGGGLVQAGGSLRLSCAASGRTFPGYAMGWYRQAPGKERELVATITGNGGSTYYADSVKGRFTISRDNAKNTVYLQMNSLKPEDTAVYYCAAGRRRPYVRAYRGTDYWGQGTQVTVSS | low polyreactivity |
| QVQLVESGGGLVQAGGSLRLSCAASGRTFPGYTMGWSRQAPGKERELVAAISYSGGSTYYADSVKGRFTISRDNAKNTVYLQMYSLKPEDTAVYYCAAAYDRQRRYSWVGERYYWGQGTQVTVSS | high polyreactivity |
| QVQLVESGGGLVQAGGSLRLSCAASGRTFPLNAMGWFRQAPGKERELVAAITWSGGRTYYADSVKGRFTISRDNAKNTVYLQMNSLKPEDTAVYYCAAKRTTWKIQSGYDYWGQGTQVTVSS | low polyreactivity |
| QVQLVESGGGLVQAGGSLRLSCAASGRTFPLYAMGWYRQAPGKERELVAAISWSGGSTYYADSVKGRFTISRDHAKNTVYLQMNSLKPEDTAVYYCNTLGRLTGRYGWSSKYYYWGQGTQVTVSS | high polyreactivity |
| QVQLVESGGGLVQAGGSLRLSCAASGRTFPPYAMGWYRQAPGKERELVAAIRWSGGDTYYADSVKGRFTISRDNAKNTVYLQMNSLKPEDTAVYYCNAVYYSYSYGYNYWGQGTQVTVSS | high polyreactivity |
| QVQLVESGGGLVQAGGSLRLSCAASGRTFPQYAMGWYRQAPGKERELVASITSRSGRTYYADSVKGRFTISRDNAKNTVYLQMNSLKPEDTAVYYCNAVSSWWYMNYWGQGTQVTVSS | high polyreactivity |
| QVQLVESGGGLVQAGGSLRLSCAASGRTFPRNAMGWYRQAPGKERELVAAISYGGGRTYYADSVKGRFTISRDNAKNTVYLQMNSLKPEDTAVYYCATVRRTDYPLGMDYWGQGTQVTVSS | high polyreactivity |
| QVQLVESGGGLVQAGGSLRLSCAASGRTFPRNAMGWYRQAPGKERELVAAISYGGGRTYYADSVKGRFTISRDYAKNTVYLQMNSLKPEDTAVYYCATVRRTDYPLGMDYWGHGTQVTVSS | high polyreactivity |
| QVQLVESGGGLVQAGGSLRLSCAASGRTFPRNGMGWYRPAPGQERELVAAIRYSGGSTYYADSVKGRFTISRDNAKNTVYLQMNSLKPEDTAVYYCAAEYRRALGVDYWGQGTQVTVSS | high polyreactivity |
| QVQLVESGGGLVQAGGSLRLSCAASGRTFPSYTMGWSRQAPGKERELVAAITWTGGSTYYADSVKGRFTISRDNAKNTVYLQMISLKPEDTAVYYCADYDYWGHGTQVTVSS | low polyreactivity |
| QVQLVESGGGLVQAGGSLRLSCAASGRTFPVNAMGGYRQAPGKERELVAVINWGGTSTYYADSVKGRFTISRDNAKNTVYLQMNSLKPEDTAVYYCAARARYPGVGYNYWGQGTQVTVSS | high polyreactivity |
| QVQLVESGGGLVQAGGSLRLSCAASGRTFPVYAMGWYRQAPGKERELVAAITRSDDSTYYADSVKGRFTISRDNAKNTVYLQMNSLKPEDTAVYYCARRSRESYEYDYWGQGTQVTVSS | low polyreactivity |
| QVQLVESGGGLVQAGGSLRLSCAASGRTFPVYDMGWYRQAPGKERELVAGITGSGGRTYYADSVKGRFTISRDNAKNTVYLQMNSLKPEDTAVYYCAADRNLYWDQHEYWGQGTQVTVSS | low polyreactivity |
| QVQLVESGGGLVQAGGSLRLSCAASGRTFPYNAMGWYRQAPGKERELVAAISWRGGSTYYADSVKGRFTISRDNAKNTVYLQMNSLKPEDTAVYYCNALYPVSYDHRGDYWGQGTQVTVSS | high polyreactivity |
| QVQLVESGGGLVQAGGSLRLSCAASGRTFPYNAMGWYRQAPGKERELVAAITSSGGSTYYADSVKGRFTISRDNAKNTVYLQMNSLKPEDTAVYYFAKGYYSPNYYYWGQGTQVTVSS | high polyreactivity |
| QVQLVESGGGLVQAGGSLRLSCAASGRTFPYNTMGWYRQAPGKERELVASISYRGGTYYADSVKGRFTISRDNAKNTVYLQMNSLKPEDTAVYYCNAVYYFSPSYRGYYWGQGTQVTVSS | high polyreactivity |
| QVQLVESGGGLVQAGGSLRLSCAASGRTFPYNVMGGYRQAPGKERELVASNDGSGGSTYYADSVKGRFTISRDNAKKTVYLQMNSLKPEDTAVYYCAAVYYQSGNYWYSYLGQSPYDYWGQGTQVTVSS | low polyreactivity |
| QVQLVESGGGLVQAGGSLRLSCAASGRTFPYYAMGWSRQAPGKERQLVAAISSSGGLTYYADSVKGRFTISRDNAKNTVYLQMNSLKPEDTAVYYFNVDAWYPYQGFLVGYYYWGQGTQVTVSS | low polyreactivity |
| QVQLVESGGGLVQAGGSLRLSCAASGRTFPYYAMGWYRQAPGKERELVAAISKRGGTTYYADSVKGRFTISRDNAKNTVYLQMNSLKPEDTAVYYCAKDSAYGWVAYDYWGQGTQVTVSS | high polyreactivity |
| QVQLVESGGGLVQAGGSLRLSCAASGRTFPYYAMGWYRQAPGKERELVAAISSSGGSTYYADSVKGRFTISRDNAKNTVYLQMNSLKPEDTEVYYCAAVYQFIKWGDRYEYWGQGTQVTVSS | high polyreactivity |
| QVQLVESGGGLVQAGGSLRLSCAASGRTFPYYAMGWYRQAPGKERELVAAITWSGGSTYYADSVKGRFTISRDNAKNTVYLQMNSLKPEDTAVYYCAKDYSRWGWNMGYWGQGTQVTVSS | high polyreactivity |
| QVQLVESGGGLVQAGGSLRLSCAASGRTFPYYVMGWYRQAPGKERELVATISSSGRTYYADSVKGRFTISRDNAKNTVYLQMNSLKPEDTAVYYCAARFRWNQNYHFYSWGQGTQVTVSS | high polyreactivity |
| QVQLVESGGGLVQAGGSLRLSCAASGRTFQDNVMGWYRQAPGKETELVAAINTSSGSTYYADSVKGRFTISRDNAKNTVYLQMNSLKPEDTAVYYCFSYDYDYWGQGTQVTVSS | low polyreactivity |
| QVQLVESGGGLVQAGGSLRLSCAASGRTFQGYAMGWYRQAPGKERDLVAAISTSGARTYYADSVKGRFTISRDNAKNTVYLQMNSLKPEDTAFYYCAAGGQGGDFGDDYWGQGTQVTVSS | high polyreactivity |
| QVQLVESGGGLVQAGGSLRLSCAASGRTFQGYSMGWYRQAPGKERELVAAISRSGGRTYYADSVKGRFTISRDNAKNTVYLQMNSLKPEDTAVYYCATDAFRDYGYWGQGTQVTVSS | high polyreactivity |
| QVQLVESGGGLVQAGGSLRLSCAASGRTFQRNAMGWYRQAPGKERELVAAITSGSRTNYADSVKGRFTISRDNAKNTVFLQMNSLKPEDTAVYYCAADYTWRNNYWGQGTQVTVSS | high polyreactivity |
| QVQLVESGGGLVQAGGSLRLSCAASGRTFQRNVMGWYRQAPGKERELVAAISSSGGGTYYADSVQGRFTISRANAKNTVYLQMNSLKPDDTAVYYCAARYRSYGGYGYYYWGLGTQVTVSS | high polyreactivity |
